Results taken from paper doi:10.1101/138099 (bioRxiv, 2017).
“And” between values parts separate entries of the source, which are not always exact repeats. Equal entries are not always repeated.

Key:
[1] = target: YweA_(BslA171-181 C180A), recombinant chimeric protein (Bacillus subtilis) (UniProt P71014); test: non-reducing SDS-PAGE
[2] = target: YweA_(BslA171-181 C178A), recombinant chimeric protein (Bacillus subtilis) (UniProt P71014); test: non-reducing SDS-PAGE
[3] = target: YweA_(BslA171-181), recombinant chimeric protein (Bacillus subtilis); test: SEC + other: non-reducing SDS-PAGE
[4] = target: the molecule itself; test: SEC + other: non-reducing SDS-PAGE
[5] = target: the molecule itself; test: cross-linking

Molecule | stoichiometry N [4] | stoichiometry N [5] | also measured
YweA_(BslA171-181 C180A), recombinant chimeric protein (from UniProt P71014 171-181) |  |  | stoichiometry N [1]: 2
YweA_(BslA171-181 C178A), recombinant chimeric protein (from UniProt P71014 171-181) |  |  | stoichiometry N [2]: 2
YweA_(BslA171-181), recombinant chimeric protein |  |  | stoichiometry N [3]: 2
Recombinant BslA_(42-181) (domain or fragment, Bacillus subtilis, UniProt P71014 42-181, looked up) MRTQSTASLFATITGASKTEWSFSDIELTYRPNTLLSLGVMEFTLPSGFTANTKDTLNGNALRTTQILNNGKTVRVPLALDLLGAGEFKLKLNNKTLPAAGTYTFRAENKSLSIGNKFYAEASIDVAKRSTPPTQPCGCN | 2 and 4 |  | 
BslA_(C180A), recombinant BslA_(42-181) variant (domain or fragment, Bacillus subtilis, UniProt P71014 42-181, looked up) MRTQSTASLFATITGASKTEWSFSDIELTYRPNTLLSLGVMEFTLPSGFTANTKDTLNGNALRTTQILNNGKTVRVPLALDLLGAGEFKLKLNNKTLPAAGTYTFRAENKSLSIGNKFYAEASIDVAKRSTPPTQPCGAN | 2 |  | 
BslA_(C178A), recombinant BslA_(42-181) variant (domain or fragment, Bacillus subtilis, UniProt P71014 42-181, looked up) MRTQSTASLFATITGASKTEWSFSDIELTYRPNTLLSLGVMEFTLPSGFTANTKDTLNGNALRTTQILNNGKTVRVPLALDLLGAGEFKLKLNNKTLPAAGTYTFRAENKSLSIGNKFYAEASIDVAKRSTPPTQPAGCN | 2 |  | 
BslA, wild type, from the B. subtilis NCIB3610 biofilm (natural protein, UniProt P71014 29-181, looked up) AESTSTKAHTESTMRTQSTASLFATITGASKTEWSFSDIELTYRPNTLLSLGVMEFTLPSGFTANTKDTLNGNALRTTQILNNGKTVRVPLALDLLGAGEFKLKLNNKTLPAAGTYTFRAENKSLSIGNKFYAEASIDVAKRSTPPTQPCGCN |  | 2 and 4 | 
BslA_(C180A) produced in the B. subtilis bslA deletion strain (NRS5178) (natural protein, Bacillus subtilis, UniProt P71014 29-181, looked up) AESTSTKAHTESTMRTQSTASLFATITGASKTEWSFSDIELTYRPNTLLSLGVMEFTLPSGFTANTKDTLNGNALRTTQILNNGKTVRVPLALDLLGAGEFKLKLNNKTLPAAGTYTFRAENKSLSIGNKFYAEASIDVAKRSTPPTQPCGAN |  | 2 | 
BslA_(C178A) produced in the B. subtilis bslA deletion strain (NRS5177) (natural protein, Bacillus subtilis, UniProt P71014 29-181, looked up) AESTSTKAHTESTMRTQSTASLFATITGASKTEWSFSDIELTYRPNTLLSLGVMEFTLPSGFTANTKDTLNGNALRTTQILNNGKTVRVPLALDLLGAGEFKLKLNNKTLPAAGTYTFRAENKSLSIGNKFYAEASIDVAKRSTPPTQPAGCN |  | 2 | 
